Assay results from patent US20180313836A1.

Target: Nrp1 immobilized on the biolayer interferometry biosensor (Homo sapiens (Human)) (UniProt O14786)
Experiment: biolayer interferometry, Nrp1 immobilized on the biosensor

| Kd [nM] | Substance |
| --- | --- |
| 29.8 | human glycyl-tRNA synthetase L129P (L129P-GlyRS^CMT2D) (from UniProt P41250 55-739) (enzyme) |
| 209 | human glycyl-tRNA synthetase P234KY (P234KY-GlyRS^CMT2D) (from UniProt P41250 37-739) (enzyme) |
